Experiments:
[1] = biological target: mSPE-7 IgE from the NS1 hybridoma (mouse anti-dinitrophenyl IgE) (mouse); conditions: scale: % of the unpurified Sigma SPE-7 IgE's activity
[2] = biological target: mSPE-7 IgE from the NS1 hybridoma (mouse anti-dinitrophenyl IgE) (mouse); experiment: SEC-MALLS; peak B of the Superdex 200 Increase fractionation of NS1 mSPE-7 IgE, run again on Superdex 200 Increase with inline light scattering and refractometer
[3] = biological target: Sigma mSPE-7 IgE (commercial mouse monoclonal anti-dinitrophenyl IgE, SPE-7, from Sigma) (mouse); conditions: scale: % of the activity of the unpurified Sigma SPE-7 IgE

Row | degranulation of RBL-SX38 cells (β-hexosaminidase release) without antigen by peak B (IgE trimer) of NS1 mSPE-7 IgE, against unpurified Sigma SPE-7 IgE [1] | stoichiometry N [2] | degranulation of RBL-SX38 cells (β-hexosaminidase release) without antigen by component B of Sigma SPE-7 IgE, against unpurified Sigma SPE-7 IgE [3] | Substance
1 | 55 | 3 | – | mSPE-7 IgE from the NS1 hybridoma (mouse anti-dinitrophenyl IgE) (antibody)
2 | – | – | 65 | Sigma mSPE-7 IgE (commercial mouse monoclonal anti-dinitrophenyl IgE, SPE-7, from Sigma) (antibody)
